What all share (format): physicochemical
A short description of data set [1]: Enbrel stability after aerosol generation, size exclusion chromatography (SEC). The source says:
Size Exclusion Chromatography (SEC): Alternately, to determine the stability of active agent after droplet generation, the generated stream of droplets including the active agent may be collected and […] may be employed to monitor for any changes in large molecule aggregation and protein fragment content. Soluble protein aggregates and protein fragment content may be calculated by comparing respective peak area under the SEC-HPLC curve of dispensed protein solutions with controls (solutions remaining in the device reservoir). Drug solutions for testing include Enbrel, (ENBREL® single-use prefilled syringes in 25 mg (0.51 mL of a 50 mg/mL solution of etanercept), and insulin, (Humalog, 200 units/ml, 3 ml […] is performed with a YarraTM 3 μm SEC-2000 LC column 300×7.8 mm, SecurityGuard cartridge kit and SecurityGuard cartridges GFC-2000, 4×3 mm ID. Fifty microliters of Enbrel from the syringe (ENBREL® single-use prefilled syringes in 25 mg/0.51 mL of a 50 mg/mL solution of etanercept) is diluted (4:1) (4 parts, 200 mcl of the mobile phase buffer solution to 1 part, 50 mcl Enbrel from syringe). Fifty microliter of the diluted Enbrel is injected and separation was performed at a flow rate of 1.0 ml/min. The mobile phase buffer system included a PHOS. BUFF. SALINE. […] UV detection is performed at 280 nm. […] An ampule/cartridge is filled with either 0.20 ml of Enbrel® (50 mg/ml) diluted 4:1 (10 mg/ml) (4 parts (200 mcl) of PBS and 0.025% NaN3 and 1 part (50 mcl of Enbrel solution from the syringe). After 20 actuations and aerosolization, about 150 mcl of the aerosolized Enbrel solution is recovered and collected in the polypropylene tube located below the ejector mechanism. The control consists of the diluted Enbrel solution, 50 mcl of which is injected into the SEC column for analysis.
On the technique in general: SEC sorts molecules by how far they enter the pores of the column.

A short description of data set [2]: Gel electrophoresis of active agent after droplet generation. The following applies: 'will show'. The source says:
Gel Electrophoresis: To determine the stability of active agent after droplet generation, the generated stream of droplets including the active agent is collected and the molecular weight of the active agent is verified using gel electrophoresis.

Data set [3] can be described thus: Insulin stability after aerosol generation, size exclusion chromatography (SEC). The source says:
Size Exclusion Chromatography (SEC): Alternately, to determine the stability of active agent after droplet generation, the generated stream of droplets including the active agent may be collected and SEC-HPLIC may be employed to monitor for any changes in large molecule aggregation and protein fragment content. Soluble protein aggregates and protein fragment content may be calculated by comparing respective peak area under the SEC-HPLC curve of dispensed protein solutions with controls (solutions remaining in the device reservoir).
Drug solutions for testing include Enbrel, (ENBREL® single-use prefilled syringes in 25 mg (0.51 mL of a 50 mg/mL solution of etanercept), and insulin, (Humalog, 200 units/ml, 3 ml kwikpens)
Aerosol collection and SEC is performed in a similar fashion as for the Enbrel analysis and aerosol collection.
Fifty microliters of the collected aerosol spray is injected onto the SEC column for analysis, while 50 mcl of the Kwikpen insulin solution is injected onto the SEC column for control samples.

Data set [4] can be described thus: Anderson Cascade Impactor testing of droplet delivery device with Albuterol sulfate (Example B). The following applies: Albuterol 0.5%, 28.3 lpm. From the text: FIGS. 21A-21E provide a summary of the test results.
Where [5] appears, read: aerosolized samples S1, S2 (summary table).
Setting [6] is: control, Enbrel diluted 4:1 (10 mg/ml), SEC UV 280 nm.

Values joined by “and” are separate entries in the source; they are usually repeats but may differ in a detail not shown here. Equal entries are not always repeated.

Regarding etanercept [Enbrel], in data set [1] (setting [5]), the “Peak 4” value was 0.357 and 0.352; the “Peak 5” value was 5.123 and 3.428. Besides, in data set [1] (setting [6]), the “Peak 4 Peak Area %” value was determined as 0% and the “Peak 5 Peak Area %” value is reported as 0%. Also, the “dose leading to formation of molecular fragments” value in data set [1] (fragments with elution times of 13 and 25 minutes) was 4.6%. Further, the “change in the electrophoretic mobility, and hence the molecular weight, post-aerosol vs control” value (“change in the electrophoretic mobility” below) in data set [2] is reported as “negligible change”.

Turning to “Insulin: insulin, Humalog, 200 units/ml, 3 ml kwikpens”, the “Peak 3” value in data set [3] (setting [5]) was 2.797 and 2.184. In addition, the “Peak 3 Peak Area %” value in data set [3] (control, Insulin from Kwikpen 200 U/ml, SEC) was 0%. In addition, the “ejected dose forming a fragment” value in data set [3] (fragment eluting at ~25 minutes) stood at 2.5%.

Albuterol sulfate: in data set [4] (FILTER stage, 10 actuations), the “Cum. % <” value came out at 0.00% and the “Cum. % >” value is 100.00%. In data set [4] (summary of deposition), this substance yielded a Coarse of 22.7, a Fine of 3.5, a Mouthpiece of 12.2 and a Respirable of 69.3. In addition, the Throat in data set [4] (summary of deposition) amounted to 4.6.

With adalimumab, the “change in the electrophoretic mobility” value in data set [2] is on record as “negligible change”.

For the substance bevacizumab, the “change in the electrophoretic mobility” value in data set [2] is “negligible change”.

These data come from patent US12491324B2, “Droplet device with inertial filtering” (PNEUMA RESPIRATORY, INC., priority 2016, dated 2025).
